Molecular target: the molecule itself
Test: dynamic light scattering; Zetasizer Nano S, 6 μM enzyme, 50 mM Hepes pH 7.4, 0.5 M NaCl, 25 °C; also with L-Orn and α-KG at saturating concentrations

B1: R217A variant of human ornithine δ-aminotransferase (enzyme, UniProt P04181 26-439, looked up)
chain: TSVATKKTVQGPPTSDDIFEREYKYGAHNYHPLPVALERGKGIYLWDVEGRKYFDFLSSYSAVNQGHCHPKIVNALKSQVDKLTLTSRAFYNNVLGEYEEYITKLFNYHKVLPMNTGVEAGETACKLARKWGYTVKGIQKYKAKIVFAAGNFWGRTLSAISSSTDPTSYDGFGPFMPGFDIIPYNDLPALEAALQDPNVAAFMVEPIQGEAGVVVPDPGYLMGVRELCTRHQVLFIADEIQTGLARTGRWLAVDYENVRPDIVLLGKALSGGLYPVSAVLCDDDIMLTIKPGEHGSTYGGNPLGCRVAIAALEVLEEENLAENADKLGIILRNELMKLPSDVVTAVRGKGLLNAIVIKETKDWDAWKVCLRLRDNGLLAKPTHGDIIRFAPPLVIKEDELRESIEIINKTILSF
notes: the protein as purified is reconstituted with PLP, so probably the holo-form (PLP on Lys292); A start Met from the NdeI site probably precedes T26; also called R217A mutant; dimeric variant R217A; source: E. coli BL21(DE3)pLysS, purified (DEAE Sepharose, Superdex 200)
Q: B1 was tested. Which “stoichiometry N” value did it give?
A: Its value is 2.

Source: publication PMC5432616 (The Protein Journal, 2017)
